Results taken from patent US20170088632A1 (OMEROS, published 2017).

Tests used:
human MASP-2 [1] = biological target: T1, human MASP-2 (human, UniProt O00187 16-686); test: cell-based or functional assay
human MASP-2 [2] = biological target: T1, human MASP-2; test: cell-based or functional assay; remark: listed apart in the source
[3] = biological target: T2, African Green monkey MASP-2 (in African Green monkey serum) (African Green monkey); test: cell-based or functional assay
human MASP-2 [4] = biological target: T1, human MASP-2; test: cell-based or functional assay; remark: listed apart in the source
[5] = biological target: T2, African Green monkey MASP-2 (in African …); test: cell-based or functional assay; remark: listed apart in the source
human MASP-2 [6] = biological target: T1, human MASP-2; test: cell-based or functional assay; remark: listed apart in the source
human MASP-2 [7] = biological target: T1, human MASP-2; test: cell-based or functional assay; remark: listed apart in the source
human MASP-2 [8] = biological target: T1, human MASP-2; test: cell-based or functional assay; remark: listed apart in the source
[9] = biological target: T2, African Green monkey MASP-2 (in African …); test: cell-based or functional assay; remark: listed apart in the source
[10] = biological target: rat MASP-2 (in rat serum) (rat, UniProt Q9JJS8 20-685); test: cell-based or functional assay
Sequence of rat MASP-2 (in rat serum) (Q9JJS8 other isoform, or with tags, fused parts or gaps limits assumed): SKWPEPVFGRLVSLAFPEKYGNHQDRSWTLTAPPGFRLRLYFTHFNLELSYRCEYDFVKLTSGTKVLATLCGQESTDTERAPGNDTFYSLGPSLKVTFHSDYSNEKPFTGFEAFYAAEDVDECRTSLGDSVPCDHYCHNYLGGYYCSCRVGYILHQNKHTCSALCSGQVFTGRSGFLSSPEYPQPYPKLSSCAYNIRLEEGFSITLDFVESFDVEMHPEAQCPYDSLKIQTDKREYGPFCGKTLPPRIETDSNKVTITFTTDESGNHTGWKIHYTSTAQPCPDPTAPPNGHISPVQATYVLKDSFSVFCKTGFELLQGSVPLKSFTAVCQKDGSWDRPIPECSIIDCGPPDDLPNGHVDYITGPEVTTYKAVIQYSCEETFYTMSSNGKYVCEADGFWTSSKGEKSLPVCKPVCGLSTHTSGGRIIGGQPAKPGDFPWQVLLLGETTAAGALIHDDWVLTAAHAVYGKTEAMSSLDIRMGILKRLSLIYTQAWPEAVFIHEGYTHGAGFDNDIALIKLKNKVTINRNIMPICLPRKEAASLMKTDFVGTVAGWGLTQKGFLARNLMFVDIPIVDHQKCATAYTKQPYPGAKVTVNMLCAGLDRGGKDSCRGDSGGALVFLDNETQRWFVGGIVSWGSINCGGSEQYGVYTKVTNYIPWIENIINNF

[11] = biological target: T3, human MASP-2A (catalytically inactive human MASP-2, Ser618 to Ala618) (human, UniProt O00187 16-686); test: SPR (Biacore), MASP-2A amine coupled to CM5 chip, scFv monomer in solution
T3 construct: the ELISA and Biacore methods say only 'MASP-2A', so a tag may have been present; also called huMASP2A; huMASP-2A
T3 sequence (O00187 16-686 S633A): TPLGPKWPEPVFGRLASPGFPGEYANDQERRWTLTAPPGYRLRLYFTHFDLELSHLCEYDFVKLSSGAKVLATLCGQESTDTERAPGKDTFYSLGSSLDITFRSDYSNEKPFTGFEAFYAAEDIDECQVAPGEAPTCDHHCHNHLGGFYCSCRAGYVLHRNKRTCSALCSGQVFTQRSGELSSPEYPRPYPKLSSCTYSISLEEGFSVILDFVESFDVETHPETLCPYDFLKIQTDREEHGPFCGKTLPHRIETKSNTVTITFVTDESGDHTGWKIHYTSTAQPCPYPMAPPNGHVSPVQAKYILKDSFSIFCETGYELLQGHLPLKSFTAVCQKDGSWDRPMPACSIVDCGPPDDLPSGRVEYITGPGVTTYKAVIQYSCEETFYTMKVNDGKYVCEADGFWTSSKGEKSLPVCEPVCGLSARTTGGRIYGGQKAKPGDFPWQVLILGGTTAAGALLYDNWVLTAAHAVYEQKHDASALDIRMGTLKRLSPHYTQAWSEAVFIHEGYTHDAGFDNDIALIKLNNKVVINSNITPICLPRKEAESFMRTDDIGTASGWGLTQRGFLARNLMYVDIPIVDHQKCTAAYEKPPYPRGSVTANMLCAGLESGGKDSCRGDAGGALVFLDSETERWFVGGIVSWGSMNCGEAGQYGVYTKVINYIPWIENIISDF

T1 sequence (O00187 16-686): as the sequence (O00187 16-686 S633A) above, with A618S counted along it

Binder	C3 convertase assay using 1% human serum, IC50 (first experiment) (human MASP-2 [1])	C3 convertase assay using 1% human serum, IC50 (second experiment) (human MASP-2 [1])	Functional IC50, C3b deposition, human serum Exp #1 (human MASP-2 [4])	Functional IC50, C3b deposition, human serum Exp #2 (human MASP-2 [4])	Functional IC50, C3b deposition, human serum Exp #3 (human MASP-2 [4])	Functional IC50, C3b deposition, human serum Exp #4 (human MASP-2 [4])	Functional IC50, C3b deposition, non-human primate serum Exp #1 [5]	Functional IC50, C3b deposition, non-human primate serum Exp #2 [5]	Inhibitory activity in Human Serum IC50 (C3b deposition, 0.5% human serum) (human MASP-2 [6])	C3b deposition assay in 1% human serum, IC50 (human MASP-2 [7])	African Green Monkey C3 assay IC50 [9]	also measured
MoAb #5 (OMS645), 17D20_3521N11 IgG4 (antibody) heavy: not shown light: QPVLTQPPSLSVSPGQTASITCSGEKLGDKYAYWYQQKPGQSPVLVMYQDKQRPSGIPERFSGSNSGNTATLTISGTQAMDEADYYCQAWDSSTAVFGGGTKLTVLGQPKAAPSVTLFPPSSEELQANKATLVCLISDFYPGAVTVAWKADSSPVKAGVETTTPSKQSNNKYAASSYLSLTPEQWKSHRSYSCQVTHEGSTVEKTVAPTECS											16 nM	Inhibition of Rat C3b IC50 [10]: 500 nM
MoAb #6 (OMS646), 17D20_3521N11 IgG4 mutant (S228P hinge) (antibody) heavy: not shown light: QPVLTQPPSLSVSPGQTASITCSGEKLGDKYAYWYQQKPGQSPVLVMYQDKQRPSGIPERFSGSNSGNTATLTISGTQAMDEADYYCQAWDSSTAVFGGGTKLTVLGQPKAAPSVTLFPPSSEELQANKATLVCLISDFYPGAVTVAWKADSSPVKAGVETTTPSKQSNNKYAASSYLSLTPEQWKSHRSYSCQVTHEGSTVEKTVAPTECS											14 nM	Inhibition of Rat C3b IC50 [10]: > 500 nM
17N16 mother clone, wild type IgG4 format (antibody, V domains shown) VH: QVQLQQSGPGLVKPSQTLSLTCAISGDSVSSTSAAWNWIRQSPSRGLEWLGRTYYRSKWYNDYAVSVKSRITINPDTSKNQFSLQLNSVTPEDTAVYYCARDPFGVPFDIWGQGTMVTVSS VL: SYVLTQPPSVSVAPGQTARITCGGNNIGSKNVHWYQQKPGQAPVLVVYDDSDRPSGIPERFSGSNSGNTATLTVSRVEAGDEADYYCQVWDTTTDHVVFGGGTKLTVL	5.45 nM	3.09 nM								~20 nM		C3b deposition assay in 90% NHS, IC50 (human MASP-2 [8]): 15 nM
scFv mother clone 3F22 (scFv) scFv: QVQLQQSGPGLVKPSQTLSLTCAISGDSVSSNSAAWNWIRQSPSRGLEWLGRTYYRSKWYNDYAVSVKSRITINPDTSKNQFSLQLNSVTPEDTAVYYCARDPFGVPFDIWGQGTMVTVSSKLSGSASAPKLEEGEFSEARVSYVLTQPPSVSVAPGQTARVTCGGNNIRSKNVHWYQQKPGQAPVLVVYDDTDRPSGIPERFSGSNSGNTATLTVSRVEAGDEADYYCQVWDTTTDHVVFGGGTKLTVLAAAGSEQKLISEEDLNSHHHHHH			20.6 nM	36.7 nM	41.4 nM	68.8 nM	114 nM	173 nM	20.6 nM			

Further lines, with some results ahead:

C3 convertase assay using 1% human serum, IC50 (first experiment) (human MASP-2 [1])	C3 convertase assay using 1% human serum, IC50 (second experiment) (human MASP-2 [1])	Functional IC50, C3b deposition, human serum Exp #1 (human MASP-2 [4])	Functional IC50, C3b deposition, human serum Exp #2 (human MASP-2 [4])	Functional IC50, C3b deposition, human serum Exp #3 (human MASP-2 [4])	Functional IC50, C3b deposition, human serum Exp #4 (human MASP-2 [4])	Functional IC50, C3b deposition, non-human primate serum Exp #1 [5]	Functional IC50, C3b deposition, non-human primate serum Exp #2 [5]	Inhibitory activity in Human Serum IC50 (C3b deposition, 0.5% human serum) (human MASP-2 [6])	C3b deposition assay in 1% human serum, IC50 (human MASP-2 [7])	African Green Monkey C3 assay IC50 [9]	Binder	also measured
160 nM	193 nM	6.1 nM	96.8 nM	52.3 nM	53.5 nM	65.6 nM	128 nM	6.1 nM			scFv mother clone 18L16 (scFv) scFv: QVTLKESGPVLVKPTETLTLTCTVSGFSLSNARMGVSWIRQPPGKALEWLAHIFSNDEKSYSTSLKSRLTISKDTSKSQVVLTMTNMDPVDTATYYCARMAILTAGGMDVWGQGTTVTVSSKLSGSASAPKLEEGEFSEARVSYVLTQPPSVSASPGQTASITCSGDKLGDKYVSWYQQKPGRSPVLVIYRDTKRPSGIPERFSGSNYGNTATLTISGTQAVDEADYYCQAWDSGSGVFGGGTKVTVLAAAGSEQKLISEEDLNSHHHHHH	C3 Assay IC50 in dilute serum (1%), human serum Exp #1 (human MASP-2 [2]): 53 nM; C3 Assay IC50 in dilute serum (1%), human serum Exp #2 (human MASP-2 [2]): 52 nM; C3 Assay IC50 in dilute serum (1%), human serum Exp #3 (human MASP-2 [2]): 97 nM; C3 Assay IC50 in dilute serum (1%), human serum mean (human MASP-2 [2]): 67 nM; C3 Assay IC50, non-human primate serum Exp #1 [3]: 65 nM; C3 Assay IC50, non-human primate serum Exp #2 [3]: 154 nM; C3 Assay IC50, non-human primate serum mean [3]: 110 nM
33.9 nM	22 nM								59 nM		18L16 mother clone, wild type IgG4 format (antibody, V domains shown) VH: QVTLKESGPVLVKPTETLTLTCTVSGFSLSNARMGVSWIRQPPGKALEWLAHIFSNDEKSYSTSLKSRLTISKDTSKSQVVLTMTNMDPVDTATYYCARMAILTAGGMDVWGQGTTVTVS VL: LTQPPSVSASPGQTASITCSGDKLGDKYVSWYQQKPGRSPVLVIYRDTKRPSGIPERFSGSNYGNTATLTISGTQAVDEADYYCQAWDSGSGVFGGGTKVTVLA	C3 convertase assay using 1% human serum, fold improvement of IC50 (scFv to divalent form), first experiment (human MASP-2 [1]): ~4.7 fold; C3 convertase assay using 1% human serum, fold improvement of IC50 (scFv to divalent form), second experiment (human MASP-2 [1]): ~8.7 fold
7.39 nM	10.3 nM								22 nM		17D20 mother clone, wild type IgG4 format (antibody, V domains shown) VH: QVTLKESGPVLVKPTETLTLTCTVSGFSLSRGKMGVSWIRQPPGKALEWLAHIFSSDEKSYRTSLKSRLTISKDTSKNQVVLTMTNMDPVDTATYYCARIRAGGIDYWGQGTLVTVSS VL: QPVLTQPPSVSVSPGQTASITCSGDKLGDKFAYWYQQKPGHSPVLVIYQDNKRPSGIPGRFSGSNSGNTATLTISGTQAMDEADYYCQAWDSSTAVFGTGTKVTVLA	C4b deposition in 90% human serum, IC50 relative to the C3b deposition assay (human MASP-2 [8]): ~3 fold
										18 nM	MoAb #4 (OMS644), 17D20_3521N11 IgG2 (antibody) heavy: QVTLKESGPVLVKPTETLTLTCTVSGFSLSRGKMGVSWIRQPPGKALEWLAHIFSSDEKSYRTSLKSRLTISKDTSKNQVVLTMTNMDPVDTATYYCARIRRGGIDYWGQGTLVTVSSASTKGPSVFPLAPCSRSTSESTAALGCLVKDYFPEPVTVSWNSGALTSGVHTFPAVLQSSGLYSLSSVVTVPSSNFGTQTYTCNVDHKPSNTKVDKTVERKCCVECPPCPAPPVAGPSVFLFPPKPKDTLMISRTPEVTCVVVDVSHEDPEVQFNWYVDGVEVHNAKTKPREEQFNSTFRVVSVLTVVHQDWLNGKEYKCKVSNKGLPAPIEKTISKTKGQPREPQVYTLPPSREEMTKNQVSLTCLVKGFYPSDIAVEWESNGQPENNYKTTPPMLDSDGSFFLYSKLTVDKSRWQQGNVFSCSVMHEALHNHYTQKSLSLSPGK light: QPVLTQPPSLSVSPGQTASITCSGEKLGDKYAYWYQQKPGQSPVLVMYQDKQRPSGIPERFSGSNSGNTATLTISGTQAMDEADYYCQAWDSSTAVFGGGTKLTVLGQPKAAPSVTLFPPSSEELQANKATLVCLISDFYPGAVTVAWKADSSPVKAGVETTTPSKQSNNKYAASSYLSLTPEQWKSHRSYSCQVTHEGSTVEKTVAPTECS	
		28.9 nM	120 nM	17.3 nM	24.3 nM	99.3 nM	77.1 nM	28.9 nM			scFv mother clone 9P13 (scFv) scFv: QVQLQQSGPGLVKPSQTLSLTCAISGDSVSSNSAAWNWIRQSPSRGLEWLGRTYYRSKWYNDYAVSVKSRITINPDTSKNQFSLQLNSVTPEDTAVYYCARDPFGVPFDIWGQGTMVTVSSKLSGSASAPKLEEGEFSEARVSYELTQLPSVSVAPGQTARVTCGGNNIRSKNVHWYQQKPGQAPVLVVYDDTDRPSGIPERFSGSNSGNTATLTVSRVEAGDEADYYCQVWDTTTDHVVFGGGTKVTVLAAAGSEQKLISEEDLNSHHHHHH	Kd [11]: 220 nM
